Test results reported in US8592138B2, “Methods for improving sperm functionality” (Androgenix Ltd., priority 2010, dated 2013).

B1: PDC-109: bovine seminal plasma protein purified by ion exchange chromatography; SEQ ID NO: 1 (protein, listed as Bos taurus)
chain: MALQLGLFLIWAGVSVFLQLDPVNGDQDEGVSTEPTQDGPAELPEDEECVFPFVYRNRKHFDCTVHGSLFPWCSLDADYVGRWKYCAQRDYAKCVFPFIYGGKKYETCTKIGSMWMSWCSLSPNYDKDRAWKYC
B2: BSP-A3: bovine seminal plasma protein; SEQ ID NO: 2 (protein, listed as Bos taurus)
chain: MALRLGLFLIWAGVSMFLQLDPVNGDEQLSEDNVILPKEKKDPASGAETKDNKCVFPFIYGNKKYFDCTLHGSLFLWCSLDADYTGRWKYCTKNDYAKCVFPFIYEGKSYDTCIIIGSTFMNYWCSLSSNYDEDGVWKYC
B3: aSFP: acidic seminal fluid protein, bovine spermadhesin; SEQ ID NO: 4 (protein, listed as Bos taurus)
chain: MKLSSVIPWALLLSTATVDSMDWLPRNTNCGGILKEESGVIATYYGPKTNCVWTIQMPPEYHVRVSIQYLQLNCNKESLEIIDGLPGSPVLGKICEGSLMDYRSSGSIMTVKYIREPEHPASFYEVLYFQDPQA

Columns and labels:
sperm cells = assay: Flow cytometry of pegylated seminal proteins binding to sperm; type: cell-based, bovine; conditions: 1 μg/mL pegylated SP protein, 30 min at 28° C.
Procedure: (§1) NHS-dPEG4-Biotin was resuspended in H2O. Two hundred micrograms of PDC-109, BSP-A3, BSP-30 kDa and aSFP, were mixed in molar ratios of 1:5, 1:20, 1:40 and 1:60 with NHS-dPEG4Biotin and incubated for 30 min at room temperature. The reaction was stopped by the addition of 1M Tris-HCl pH7.4 at a final concentration of 25 mM. Pegylated proteins were dialysed against PBS to remove excess PEG. Pegylation was assessed by SDS-PAGE with Coomassie Blue staining. […] Western blots with labelled streptavidin supported this conclusion.
Sperm cells were prepared by centrifugation of fresh ejaculate containing extender through a 60% Percoll™ PLUS gradient followed by one wash in NCM. The sperm cells were then incubated for 30 min at 28° C. with 1 μg/mL of each of the pegylated SP proteins. After incubation with the pegylated SP proteins, cells were washed once, streptavidin-alexa fluor 488 was added to the cells and they were incubated for a further 30 min at 37° C. Flow cytometry analysis was then conducted.

Bovine sperm cells = assay: Fluorescence microscopy of pegylated seminal proteins binding to sperm; type: cell-based; conditions: pegylated/biotinylated SP protein, 37° C. for 30 min in NCM
Procedure: as §1
Bovine sperm cells from liquid extended semen were percoll-purified and washed in non-capacitating media (NCM; Table 3 below) with addition of 0.1% PEG (MW 600, Serva). The cells were incubated with pegylated/biotinylated SP proteins in NCM at 37° C. for 30 min, and centrifuged once to remove the supernatant. Cell pellets were resuspended in NCM containing streptavidin-alexa fluor 488 and LIVE/DEAD fixable far red dye, and incubated at 37° C. for 1 hr. Cells were washed once in NCM, and resuspended in NCM to a final concentration close to 10^7 cells/ml. DAPI was added to cells, and 10^5 cells were placed onto Superfrost plus slide. The sperm cells were studied with a Leica DMRE microscope equipped with a Leica DC500 camera, a fluorescent ebq 100 lamp and interchangeable filter sets.

| Molecule | Binding to sperm cells (right-shift in the histogram vs streptavidin-alexa fluor 488 alone) (sperm cells) | Fluorescent signal on sperm (streptavidin-alexa fluor 488) (Bovine sperm cells) |
| --- | --- | --- |
| B1 | demonstrated binding to sperm cells |  |
| B2 | demonstrated binding to sperm cells |  |
| B3 |  | strong fluorescent signal in the acrosomal cap part of sperm head |
